In one series the test system is MCF7. Kind of series: percentage of EdU-negative (G0-arrested) nuclei per well, 72 h; higher = more G0 arrest. As to conditions: reference: sequence is the full UniProt precursor, the tested protein was the secreted form or ectodomain.
A further series has as its system hTERT-HMEC. The description is as above. Conditions: reference: sequence is the full UniProt precursor, the tested protein was the secreted form or ectodomain.
The mark [1] stands for this setting: protein concentration 0.012475 µM.
Where [2] appears, read: protein concentration 0.12475 µM.
Where [3] appears, read: protein concentration 0.02632 µM.
The mark [4] stands for this setting: protein concentration 0.2632 µM.
Where [5] appears, read: protein concentration 0.0225 µM.
Setting [6] is: protein concentration 0.03125 µM.
Setting [7] is: protein concentration 0.3125 µM.

± gives the standard deviation of the averaged measurements.
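Further: secreted proteins added to cultured cells, EdU pulse at the end, nuclei found by Hoechst imaging, EdU status from nuclear versus surrounding ring intensity ratio, PBS as neutral control.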

Regarding “MRGANAWAPLCLLLAAATQLSRQQSPERPVFTCGGILTGESGFIGSEGFPGVYPPNSKCTWKITVPEGKVVVLNFRFIDLESDNLCRYDFVDVYNGHANGQRIGRFCGTFRPGALVSSGNKMMVQMISDANTAGNGFMAMFSAAEPNERGDQYCGGLLDRPSGSFKTPNWPDRDYPAGVTCVWHIVAPKNQLIELKFEKFDVERDNYCRYDYVAVFNGGEVNDARRIGKYCGDSPPAPIVSERNELLIQFLSDLSLTADGFIGHYIFRPKKLPTTTEQPVTTTFPVTTGLKPTVALCQQKCRRTGTLEGNYCSSDFVLAGTVITTITRDGSLHATVSIINIYKEGNLAIQQAGKNMSARLTVVCKQCPLLRRGLNYIIMGQVGEDGRGKIMPNSFIMMFKTKNQKLLDALKNKQC [Q9UKZ9]”, the “percentage of EdU-negative” value in the series with MCF7 (setting [1]) amounted to 25.27 ± 0.085%; with MCF7 (setting [2]), 25.1 ± 1.3%; with hTERT-HMEC (setting [1]), 4.6 ± 0.68%; in the series with hTERT-HMEC (setting [2]), 7.45 ± 0.19%.

Take “MRGLLVLSVLLGAVFGKEDFVGHQVLRISVADEAQVQKVKELEDLEHLQLDFWRGPAHPGSPIDVRVPFPSIQAVKIFLESHGISYETMIEDVQSLLDEEQEQMFAFRSRARSTDTFNYATYHTLEEIYDFLDLLVAENPHLVSKIQIGNTYEGRPIYVLKFSTGGSKRPAIWIDTGIHSREWVTQASGVWFAKKITQDYGQDAAFTAILDTLDIFLEIVTNPDGFAFTHSTNRMWRKTRSHTAGSLCIGVDPNRNWDAGFGLSGASSNPCSETYHGKFANSEVEVKSIVDFVKDHGNIKAFISIHSYSQLLMYPYGYKTEPVPDQDELDQLSKAAVTALASLYGTKFNYGSIIKAIYQASGSTIDWTYSQGIKYSFTFELRDTGRYGFLLPASQIIPTAKETWLALLTIMEHTLNHPY”: the “percentage of EdU-negative” value turned out to be 25.44 ± 0.046% in the series with MCF7 (setting [3]), 27.3 ± 3% with MCF7 (setting [4]), 5.61 ± 0.74% in the series on hTERT-HMEC (setting [3]) and 8.13 ± 1.2% in the series with hTERT-HMEC (setting [4]).

Turning to “MRGPSGALWLLLALRTVLGGMEVRWCATSDPEQHKCGNMSEAFREAGIQPSLLCVRGTSADHCVQLIAAQEADAITLDGGAIYEAGKEHGLKPVVGEVYDQEVGTSYYAVAVVRRSSHVTIDTLKGVKSCHTGINRTVGWNVPVGYLVESGRLSVMGCDVLKAVSDYFGGSCVPGAGETSYSESLCRLCRGDSSGEGVCDKSPLERYYDYSGAFRCLAEGAGDVAFVKHSTVLENTDGKTLPSWGQALLSQDFELLCRDGSRADVTEWRQCHLARVPAHAVVVRADTDGGLIFRLLNEGQRLFSHEGSSFQMFSSEAYGQKDLLFKDSTSELVPIATQTYEAWLGHEYLHAMKGLLCDPNRLPPYLRWCVLSTPEIQKCGDMAVAFRRQRLKPEIQCVSAKSPQHCMERIQAEQVDAVTLSGEDIYTAGKTYGLVPAAGEHYAPEDSSNSYYVVAVVRRDSSHAFTLDELRGKRSCHAGFGSPAGWDVPVGALIQRGFIRPKDCDVLTAVSEFFNASCVPVNNPKNYPSSLCALCVGDEQGRNKCVGNSQERYYGYRGAFRCLVENAGDVAFVRHTTVFDNTNGHNSEPWAAELRSEDYELLCPNGARAEVSQFAACNLAQIPPHAVMVRPDTNIFTVYGLLDKAQDLFGDDHNKNGFKMFDSSNYHGQDLLFKDATVRAVPVGEKTTYRGWLGLDYVAALEGMSSQQCSGAAAPAPGAPLLPLLLPALAARLLPPAL”, the “percentage of EdU-negative” value in the series with MCF7 (setting [5]) turned out to be 26.1 ± 0.62%; with MCF7 (protein concentration 0.225 µM), 27.8 ± 1.6%; with hTERT-HMEC (setting [5]) it was 6.116 ± 0.02%; in the series with hTERT-HMEC (protein concentration 0.225 µM), 26.6 ± 0.69%.

Take “MRGTPGDADGGGRAVYQSMCKPITGTINDLNQQVWTLQGQNLVAVPRSDSVTPVTVAVITCKYPEALEQGRGDPIYLGIQNPEMCLYCEKVGEQPTLQLKEQKIMDLYGQPEPVKPFLFYRAKTGRTSTLESVAFPDWFIASSKRDQPIILTSELGKSYNTAFELNIND [Q9NZH8]”: the “percentage of EdU-negative” value is 22.9 ± 0.82% with MCF7 (setting [5]), 23 ± 2.5% with MCF7 (protein concentration 0.225 µM), 4.85 ± 0.94% in the series with hTERT-HMEC (setting [5]) and 5.31 ± 0.92% in the series on hTERT-HMEC (protein concentration 0.225 µM).

Turning to “MRHLGAFLFLLGVLGALTEMCEIPEMDSHLVEKLGQHLLPWMDRLSLEHLNPSIYVGLRLSSLQAGTKEDLYLHSLKLGYQQCLLGSAFSEDDGDCQGKPSMGQLALYLLALRANCEFVRGHKGDRLVSQLKWFLEDEKRAIGHDHKGHPHTSYYQYGLGILALCLHQKRVHDSVVDKLLYAVEPFHQGHHSVDTAAMAGLAFTCLKRSNFNPGRRQRITMAIRTVREEILKAQTPEGHFGNVYSTPLALQFLMTSPMRGAELGTACLKARVALLASLQDGAFQNALMISQLLPVLNHKTYIDLIFPDCLAPRVMLEPAAETIPQTQEIISVTLQVLSLLPPYRQSISVLAGSTVEDVLKKAHELGGFTYETQASLSGPYLTSVMGKAAGEREFWQLLRDPNTPLLQGIADYRPKDGETIELRLVSW”, the “percentage of EdU-negative” value worked out at 27 ± 1.9% in the series with MCF7 (protein concentration 0.012 µM), 25.5 ± 1.3% in the series on MCF7 (protein concentration 0.12 µM), 5.24 ± 0.2% in the series on hTERT-HMEC (protein concentration 0.012 µM) and 6.61 ± 0.18% with hTERT-HMEC (protein concentration 0.12 µM).

As to “MRIMLLFTAILAFSLAQSFGAVCKEPQEEVVPGGGRSKRDPDLYQLLQRLFKSHSSLEGLLKALSQASTDPKESTSPEKRDMHDFFVGLMGKRSVQPDSPTDVNQENVPSFGILKYPPRAE [Q9UHF0]”, the “percentage of EdU-negative” value in the series with MCF7 (setting [5]) came to 22.8 ± 2.6%; in the series with MCF7 (protein concentration 0.225 µM), 25.6 ± 1.7%; with hTERT-HMEC (setting [5]), 5.911 ± 0.0092%; in the series with hTERT-HMEC (protein concentration 0.225 µM) it was 5.91 ± 0.065%.

Take “MRIWWLLLAIEICTGNINSQDTCRQGHPGIPGNPGHNGLPGRDGRDGAKGDKGDAGEPGRPGSPGKDGTSGEKGERGADGKVEAKGIKGDQGSRGSPGKHGPKGLAGPMGEKGLRGETGPQGQKGNKGDVGPTGPEGPRGNIGPLGPTGLPGPMGPIGKPGPKGEAGPTGPQGEPGVRGIRGWKGDRGEKGKIGETLVLPKSAFTVGLTVLSKFPSSDMPIKFDKILYNEFNHYDTAAGKFTCHIAGVYYFTYHITVFSRNVQVSLVKNGVKILHTKDAYMSSEDQASGGIVLQLKLGDEVWLQVTGGERFNGLFADEDDDTTFTGFLLFSSP [P0C862]”: the “percentage of EdU-negative” value with MCF7 (setting [6]) is 28.2 ± 0.72%; in the series with MCF7 (setting [7]), 30.09 ± 0.089%; with hTERT-HMEC (setting [6]), 5.3 ± 0.76%; with hTERT-HMEC (setting [7]), 7.183 ± 0.018%.

The values above are taken from the supplement of paper PMC11316812.
